Literature values, collected in patent US8901073B2, “Compounds and their effects on feeding behaviour” (Imperial Innovations Limited, priority 2011, dated 2014).

Details: endogenous PYY in circulation; cited from earlier work

For “endogenous PYY: peptide YY polypeptide, a hormone secreted into the blood by cells lining the lower small intestine and the colon”, the half life is listed as “several minutes”.
